Usually EC50 stands for the concentration at which the effect is half-maximal. A higher EC50 goes with weaker potency. Broadly, the Kd is the concentration at which binding is half-saturated. Low readings indicate higher affinity, high ones lower affinity. What is called koff is the rate constant with which the complex falls apart. High values mean a short-lived complex, low ones a long-lived complex. The kon is the second-order rate constant of association.

Test [1] addresses T1, PD-L1 expressed on cells (UniProt Q9NZQ7 19-290, limits assumed). The test is described as follows: cell-based or functional assay.
Test [2] has as its target T1, PD-L1 expressed on cells. The test is described as follows: flow cytometry on MC/CAR cells expressing PD-L1. How it is done: (§1) Cells were collected by centrifugation at 400×g for 7 minutes and primary antibody was removed. 50 μL per well of AF488 goat anti human IgG Fab (Jackson Immuno Research 109-547-003) at 1:100 dilution was added. Plates were placed at 4° C. for 30 minutes.
(§2) Cells were collected by centrifugation at 400×g for 7 minutes and secondary antibody was removed. Cells were resuspended in 50 μL per well of PBS and analyzed by flow cytometry. Binding curves were calculated using the mean fluorescence intensity (MFI) of the FITC fluorescence signal on the cells. Bispecific antibody binding was evaluated in KHYG-1 cells expressing endogenous NKG2A and in MC/CAR cells expressing PD-L1. Cells were harvested and assayed for binding as described above.
In general terms: In flow cytometry, cells or beads pass a laser one at a time.

The target of test [3] is T2, Human NKG2A & CD94 with mouse IgG2a Fc tag (AcroBiosystems) (human, UniProt P26715 94-233; Q13241 32-179, limits assumed).
T2 construct: Bought soluble antigen of the Carterra assay; also called hNKG2A; not shown: mouse IgG2a Fc tag
T2 sequence (P26715 94-233 limits assumed, chain 1 of 2): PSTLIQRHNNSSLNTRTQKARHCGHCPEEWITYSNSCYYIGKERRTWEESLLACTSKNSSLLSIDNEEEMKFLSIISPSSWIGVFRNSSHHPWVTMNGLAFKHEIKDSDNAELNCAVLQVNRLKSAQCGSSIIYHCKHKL
T2 sequence (Q13241 32-179 limits assumed, chain 2 of 2): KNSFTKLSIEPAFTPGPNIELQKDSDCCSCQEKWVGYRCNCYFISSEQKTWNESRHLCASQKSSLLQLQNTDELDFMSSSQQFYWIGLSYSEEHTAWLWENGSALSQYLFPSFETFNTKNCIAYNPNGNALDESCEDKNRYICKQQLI
Briefly: SPR (Carterra), antibody on chip, soluble antigen.

For test [4], the target named is T3, Human PD-L1 with His tag (AcroBiosystems) (human, UniProt Q9NZQ7 19-238).
T3 construct: Bought protein; also called hPD-L1; not shown: His tag
T3 sequence (Q9NZQ7 19-238 limits assumed): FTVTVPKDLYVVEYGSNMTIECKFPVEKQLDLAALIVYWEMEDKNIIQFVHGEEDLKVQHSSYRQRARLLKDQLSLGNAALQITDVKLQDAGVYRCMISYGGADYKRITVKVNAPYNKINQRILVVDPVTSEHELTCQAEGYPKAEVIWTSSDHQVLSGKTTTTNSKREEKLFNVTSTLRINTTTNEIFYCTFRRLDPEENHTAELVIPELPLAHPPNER
The test is described as follows: SPR (Carterra), antibody on chip, soluble antigen.

A further test deals with Cyno PD-L1 (cyno, UniProt G7PSE7 19-238). Briefly: SPR (Carterra), antibody on chip, soluble antigen.
Sequence of Cyno PD-L1 (G7PSE7 entry or part of it limits assumed): as the sequence (Q9NZQ7 19-238 limits assumed) above, with A33T, A34S, S62N, R68Q, Q82R, F173L, T185A, T192I, H215L counted along it
Test [5] addresses T4, NKG2A expressed on KHYG-1 cells (endogenous) (human, UniProt P26715 1-233; Q13241 1-179).
T4 construct: whole, on cells; Surface NKG2A copy number of approximately 10-20K; also called KHYG-1 cells expressing endogenous NKG2A; NKG2A-expressing cells
Briefly: flow cytometry on KHYG-1 cells expressing endogenous NKG2A. As to the method:
as §1, §2

Test [6] has as its target T4, NKG2A expressed on KHYG-1 cells …. Briefly: flow cytometry competition; inhibition of HLA-E tetramer binding to KHYG-1 cells. As to the method:
15 μL per well of binder dilution at 2× concentration was plated in a 96-well plate (Costar 3897). 15 μL per well of cell suspension at 5×10⁶ cells per mL was added. Plates were placed at 4° C. for 30 minutes. Following the incubation, 5 μL per well of Fc block (BD Pharmingen Cat #564220) was added at a final concentration of 500 ng per well. Plates were placed at 4° C. for 10 minutes. […] Plates were placed at 4° C. for 1 hour. Following the incubation, 100 μL per well of PBS was added and plate was centrifuged at 400×g for 7 minutes. Supernatant was removed by flicking the plate. Cells were resuspended in 50 μL per well of PBS and analyzed by flow cytometry (Intellicyt).

T1 sequence (Q9NZQ7 19-290 limits assumed): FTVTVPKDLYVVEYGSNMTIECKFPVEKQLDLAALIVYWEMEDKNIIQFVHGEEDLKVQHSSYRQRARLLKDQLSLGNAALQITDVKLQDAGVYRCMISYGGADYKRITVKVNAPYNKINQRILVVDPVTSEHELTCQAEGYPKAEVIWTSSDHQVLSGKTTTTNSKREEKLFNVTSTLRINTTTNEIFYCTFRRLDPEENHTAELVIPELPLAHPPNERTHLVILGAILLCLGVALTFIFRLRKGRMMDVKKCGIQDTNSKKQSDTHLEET
T4 sequence (P26715 whole entry, chain 1 of 2): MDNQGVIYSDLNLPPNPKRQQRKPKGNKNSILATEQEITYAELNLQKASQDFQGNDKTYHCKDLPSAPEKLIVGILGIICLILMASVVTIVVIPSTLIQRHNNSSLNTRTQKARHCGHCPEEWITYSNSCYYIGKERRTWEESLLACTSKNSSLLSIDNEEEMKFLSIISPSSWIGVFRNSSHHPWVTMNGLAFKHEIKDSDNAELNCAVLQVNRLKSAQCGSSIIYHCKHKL
T4 sequence (Q13241 whole entry, chain 2 of 2): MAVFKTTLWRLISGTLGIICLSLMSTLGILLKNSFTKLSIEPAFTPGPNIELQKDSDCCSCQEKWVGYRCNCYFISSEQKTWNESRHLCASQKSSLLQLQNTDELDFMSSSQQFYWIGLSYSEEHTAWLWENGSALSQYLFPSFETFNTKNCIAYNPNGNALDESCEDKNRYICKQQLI

B1: P12 × A2A2 (1 × 2 format) (bispecific antibody)
heavy 1: DIQMTQSPSSLSASVGDRVTITCRASQSVSSAVAWYQQKPGKAPKLLIYSASSLYSGVPSRFSGSRSGTDFTLTISSLQPEDFATYYCQQFMLEPITFGQGTKVEIKGQPREPQVCTLPPSRDELTKNQVSLTCLVRGFYPSDIAVEWESNGQPENNYKTTPPVLDSDGSFFLYSKLTVDKSRWQQGNVFSCSVMHEALHNHYTQKSLSLSPGKDKTHTCPPCPAPEAAGGPSVFLFPPKPKDTLMISRTPEVTCVVVDVSHEDPEVKFNWYVDGVEVHNAKTKPREEQYNSTYRVVSVLTVLHQDWLNGKEYKCKVSNKALKAPIEKTISKAKGQPREPQVYTLPPSREEMTKNQVSLSCAVKGFYPSDIAVEWESNGQPENNYKTTPPVLDSDGSFFLVSKLTVDKSRWQQGNVFSCSVMHEALHNHYTQKSLSLSPGK
light 1: EVQLVESGGGLVQPGGSLRLSCAASGFTFSSYYIHWVRQAPGKGLEWVATINSRGGFTLYADSVKGRFTISADTSKNTAYLQMNSLRAEDTAVYYCARGYTLTPVLDYWGQGTLVTVSSAQPREPQVYTLPPCRDWLTKNQVSLTCLVKGFYPSDIAVEWESNGQPENNYKTTPPVLDSDGSFFLYSKLTVDKSRWQQGNVFSCSVMHEALHNHYTQKSLSLSPGK
heavy 2: not shown
light 2: EVQLVESGGGLVQPGGSLRLSCAASGFTFSSYYIHWVRQAPGKGLEWVASYVPEDGYTDYADSVKGRFTISADTSKNTAYLQMNSLRAEDTAVYYCARSSDFIPWTSSGGMDYWGQGTLVTVSSASTKGPSVFPLAPSSKSTSGGTAALGCLVKDYFPEPVTVSWNSGALTSGVHTFPAVLQSSGLYSLSSVVTVPSSSLGTQTYICNVNHKPSNTKVDKKVEPKSC
notes: One PD-L1 site, two NKG2A sites; also called P12×A2A2, sFc; P12 × A2A2 sFc
As for B1, the “IC50 of inhibiting PD-1/PD-L1 interaction in PD-L1+MDA-MB-231 cells (PD-1/PD-L1 Signaling Bioassay, chemiluminescent signal)” value with PD-L1 expressed on cells [1] worked out at 0.689 nM. For the same molecule, the results for the EC50 (with PD-L1 expressed on cells [2]; in test [5]; in test [6]) were 6.49 nM, 0.149 nM and 0.36 nM, respectively. For the same molecule, the Kd in test [3] was 0.15 nM; in test [4], 0.15 nM; in the test with Cyno PD-L1 it was 0.12 nM. Besides, the koff was 5e-05 s⁻¹ in test [3], 7e-05 s⁻¹ in test [4] and 5e-05 s⁻¹ in the test with Cyno PD-L1. In addition, the values for the kon (in test [3]; in test [4]; with Cyno PD-L1) were 360000 M⁻¹ s⁻¹, 470000 M⁻¹ s⁻¹ and 480000 M⁻¹ s⁻¹, respectively.

B2: P12P12 × A2 (2 × 1 format) (bispecific antibody)
heavy 1: DIQMTQSPSSLSASVGDRVTITCRASQSVSSAVAWYQQKPGKAPKLLIYSASSLYSGVPSRFSGSRSGTDFTLTISSLQPEDFATYYCQQFMLEPITFGQGTKVEIKGQPREPQVCTLPPSRDELTKNQVSLTCLVRGFYPSDIAVEWESNGQPENNYKTTPPVLDSDGSFFLYSKLTVDKSRWQQGNVFSCSVMHEALHNHYTQKSLSLSPGKTASSGGSSSGDIQMTQSPSSLSASVGDRVTITCRASQSVSSAVAWYQQKPGKAPKLLIYSASSLYSGVPSRFSGSRSGTDFTLTISSLQPEDFATYYCQQFMLEPITFGQGTKVEIKGQPREPQVCTLPPSRDELTKNQVSLTCLVRGFYPSDIAVEWESNGQPENNYKTTPPVLDSDGSFFLYSKLTVDKSRWQQGNVFSCSVMHEALHNHYTQKSLSLSPGKDKTHTCPPCPAPEAAGGPSVFLFPPKPKDTLMISRTPEVTCVVVDVSHEDPEVKFNWYVDGVEVHNAKTKPREEQYNSTYRVVSVLTVLHQDWLNGKEYKCKVSNKALKAPIEKTISKAKGQPREPQVYTLPPSREEMTKNQVSLSCAVKGFYPSDIAVEWESNGQPENNYKTTPPVLDSDGSFFLVSKLTVDKSRWQQGNVFSCSVMHEALHNHYTQKSLSLSPGK
light 1: EVQLVESGGGLVQPGGSLRLSCAASGFTFSSYYIHWVRQAPGKGLEWVATINSRGGFTLYADSVKGRFTISADTSKNTAYLQMNSLRAEDTAVYYCARGYTLTPVLDYWGQGTLVTVSSAQPREPQVYTLPPCRDWLTKNQVSLTCLVKGFYPSDIAVEWESNGQPENNYKTTPPVLDSDGSFFLYSKLTVDKSRWQQGNVFSCSVMHEALHNHYTQKSLSLSPGK
heavy 2: not shown
light 2: EVQLVESGGGLVQPGGSLRLSCAASGFTFSSYYIHWVRQAPGKGLEWVASYVPEDGYTDYADSVKGRFTISADTSKNTAYLQMNSLRAEDTAVYYCARSSDFIPWTSSGGMDYWGQGTLVTVSSASTKGPSVFPLAPSSKSTSGGTAALGCLVKDYFPEPVTVSWNSGALTSGVHTFPAVLQSSGLYSLSSVVTVPSSSLGTQTYICNVNHKPSNTKVDKKVEPKSC
notes: Two PD-L1 sites, one NKG2A site; also called P12P12 × A2 sFc
B2: in the test with PD-L1 expressed on cells [1], the “IC50 of inhibiting PD-1/PD-L1 interaction in PD-L1+MDA-MB-231 cells (PD-1/PD-L1 Signaling Bioassay, chemiluminescent signal)” value worked out at 0.714 nM. Further, the EC50 with PD-L1 expressed on cells [2] is 8.67 nM; in test [5], 0.827 nM; in test [6], 46.4 nM.

B3: P12P12 × A11 (2 × 1 format) (bispecific antibody)
heavy 1: DIQMTQSPSSLSASVGDRVTITCRASQSVSSAVAWYQQKPGKAPKLLIYSASSLYSGVPSRFSGSRSGTDFTLTISSLQPEDFATYYCQQFMLEPITFGQGTKVEIKGQPREPQVCTLPPSRDELTKNQVSLTCLVRGFYPSDIAVEWESNGQPENNYKTTPPVLDSDGSFFLYSKLTVDKSRWQQGNVFSCSVMHEALHNHYTQKSLSLSPGKTASSGGSSSGDIQMTQSPSSLSASVGDRVTITCRASQSVSSAVAWYQQKPGKAPKLLIYSASSLYSGVPSRFSGSRSGTDFTLTISSLQPEDFATYYCQQFMLEPITFGQGTKVEIKGQPREPQVCTLPPSRDELTKNQVSLTCLVRGFYPSDIAVEWESNGQPENNYKTTPPVLDSDGSFFLYSKLTVDKSRWQQGNVFSCSVMHEALHNHYTQKSLSLSPGKDKTHTCPPCPAPEAAGGPSVFLFPPKPKDTLMISRTPEVTCVVVDVSHEDPEVKFNWYVDGVEVHNAKTKPREEQYNSTYRVVSVLTVLHQDWLNGKEYKCKVSNKALKAPIEKTISKAKGQPREPQVYTLPPSREEMTKNQVSLSCAVKGFYPSDIAVEWESNGQPENNYKTTPPVLDSDGSFFLVSKLTVDKSRWQQGNVFSCSVMHEALHNHYTQKSLSLSPGK
light 1: EVQLVESGGGLVQPGGSLRLSCAASGFTFSSYYIHWVRQAPGKGLEWVATINSRGGFTLYADSVKGRFTISADTSKNTAYLQMNSLRAEDTAVYYCARGYTLTPVLDYWGQGTLVTVSSAQPREPQVYTLPPCRDWLTKNQVSLTCLVKGFYPSDIAVEWESNGQPENNYKTTPPVLDSDGSFFLYSKLTVDKSRWQQGNVFSCSVMHEALHNHYTQKSLSLSPGK
heavy 2: not shown
light 2: EVQLVESGGGLVQPGGSLRLSCAASGFTFSWYYIHWVRQAPGKGLEWVAVIDPISSYTYYADSVKGRFTISADTSKNTAYLQMNSLRAEDTAVYYCARGFDRAMDYWGQGTLVTVSSASTKGPSVFPLAPSSKSTSGGTAALGCLVKDYFPEPVTVSWNSGALTSGVHTFPAVLQSSGLYSLSSVVTVPSSSLGTQTYICNVNHKPSNTKVDKKVEPKSC
notes: Two PD-L1 sites, one NKG2A site; also called P12P12 × A11 sFc
Turning to B3, the “IC50 of inhibiting PD-1/PD-L1 interaction in PD-L1+MDA-MB-231 cells (PD-1/PD-L1 Signaling Bioassay, chemiluminescent signal)” value in the test with PD-L1 expressed on cells [1] amounted to 0.405 nM. The concentration giving a half-maximal response (EC50) with PD-L1 expressed on cells [2] was determined as 3.23 nM; in test [5] it was 1.99 nM.

B4: P12 × A11A11 (1 × 2 format) (bispecific antibody)
heavy 1: DIQMTQSPSSLSASVGDRVTITCRASQSVSSAVAWYQQKPGKAPKLLIYSASSLYSGVPSRFSGSRSGTDFTLTISSLQPEDFATYYCQQFMLEPITFGQGTKVEIKGQPREPQVCTLPPSRDELTKNQVSLTCLVRGFYPSDIAVEWESNGQPENNYKTTPPVLDSDGSFFLYSKLTVDKSRWQQGNVFSCSVMHEALHNHYTQKSLSLSPGKDKTHTCPPCPAPEAAGGPSVFLFPPKPKDTLMISRTPEVTCVVVDVSHEDPEVKFNWYVDGVEVHNAKTKPREEQYNSTYRVVSVLTVLHQDWLNGKEYKCKVSNKALKAPIEKTISKAKGQPREPQVYTLPPSREEMTKNQVSLSCAVKGFYPSDIAVEWESNGQPENNYKTTPPVLDSDGSFFLVSKLTVDKSRWQQGNVFSCSVMHEALHNHYTQKSLSLSPGK
light 1: EVQLVESGGGLVQPGGSLRLSCAASGFTFSSYYIHWVRQAPGKGLEWVATINSRGGFTLYADSVKGRFTISADTSKNTAYLQMNSLRAEDTAVYYCARGYTLTPVLDYWGQGTLVTVSSAQPREPQVYTLPPCRDWLTKNQVSLTCLVKGFYPSDIAVEWESNGQPENNYKTTPPVLDSDGSFFLYSKLTVDKSRWQQGNVFSCSVMHEALHNHYTQKSLSLSPGK
heavy 2: not shown
light 2: EVQLVESGGGLVQPGGSLRLSCAASGFTFSWYYIHWVRQAPGKGLEWVAVIDPISSYTYYADSVKGRFTISADTSKNTAYLQMNSLRAEDTAVYYCARGFDRAMDYWGQGTLVTVSSASTKGPSVFPLAPSSKSTSGGTAALGCLVKDYFPEPVTVSWNSGALTSGVHTFPAVLQSSGLYSLSSVVTVPSSSLGTQTYICNVNHKPSNTKVDKKVEPKSC
notes: One PD-L1 site, two NKG2A sites; also called P12×A11A11, sFc; P12 × A11A11 sFc
For the molecule B4, the “IC50 of inhibiting PD-1/PD-L1 interaction in PD-L1+MDA-MB-231 cells (PD-1/PD-L1 Signaling Bioassay, chemiluminescent signal)” value with PD-L1 expressed on cells [1] amounted to 0.567 nM. Besides, the concentration for a half-maximal effect (EC50) amounted to 1.76 nM in the test with PD-L1 expressed on cells [2], 0.168 nM in test [5] and 0.42 nM in test [6]. Moreover, the Kd in test [3] came out at 0.34 nM; in test [4], 0.24 nM; with Cyno PD-L1, 0.13 nM. Moreover, the koff in test [3] came to 9e-05 s⁻¹; in test [4], 9e-05 s⁻¹; with Cyno PD-L1 it was 6e-05 s⁻¹. The kon in test [3] was found to be 270000 M⁻¹ s⁻¹; in test [4] it was 380000 M⁻¹ s⁻¹; with Cyno PD-L1 it was 470000 M⁻¹ s⁻¹.

The values above are taken from patent publication US20260226161A1 (EXELIXIS, published 2026).
